Assay results from the nanobody polyreactivity screen of Harvey et al. (2022).

Experiment: yeast display, Sf9 membrane polyspecificity reagent, FACS + sequencing; frameworks hold sequencing errors
Outline: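 A synthetic nanobody library was expressed on Saccharomyces cerevisiae BJ5465 by galactose induction for 36–48 hours. The library was stained for 1 hour at 4 °C with 10% biotinylated, detergent-solubilized Sf9 membrane reagent and enriched with streptavidin microbeads before FACS. Low and high (top ~1%) gates were set on anti-HA fluorescence for expression and streptavidin fluorescence for reagent binding, and each polyreactivity label reflects the gate of origin.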

Row | Sequence | polyreactivity (PSR sort gate)
1 | QVQLVESGGGLVQAGGSLRLSCAASGRIFIYYAMGWYRQAPGKERELVAAISWSGGRTYYADSVKGRFTISRDNAKNTVYLQMNSLKPEDTAVDYCAGYSFANHGFDYWGQGTQVIVSS | high polyreactivity
2 | QVQLVESGGGLVQAGGSLRLSCAASGSIFAGYAMGLYRQAPGKERELVAAISRSGDSTYYADSVKGRFTISRDNAKNTVYLQMNSLKPEDTAVYYCAAVLSYSYVRYNYWGQGTQVTVSS | high polyreactivity
3 | QVQLVESGGGLVQAGGSLRLSCAASGLIFVVYVMGWYRQAPGKERQLVAAMYGSGDSTYYADSVKGRFTISRDNAKNSVSLKMNSLKPEDTAVYSCAAKAFISDGYWYGYWGQGTQVTVSS | high polyreactivity
4 | QVQLVESGARLVQAGGSLRLSCAASGFIFRAYTMGWYRQAPGKERELVAAITSSGGRTYYADSVKGRFTISRDNAKNTVYLQMNSLKPEDTAVYYCATVDAKWKQFDYWGQGTQVTVSS | high polyreactivity
5 | QVQLVESGGGVVQAGGSLRLSCAASGFLFSHNAMGWYRQAPGKERELVASITSAGTTYYADSVKGRFTISRDNAKNTVYLQMNSLKPEDTAVYYCNKGGSSPVDIYITGDGDYWGQGTQVTVSS | low polyreactivity
6 | QVQLVESGGGLVQAGGSLRLSCAASGIIFQRNDMGWYRQAPGKEREFVAAITYIGGSTYYADSVKGRFTISRDNAKNTVYLQMNSLKPEDTAVYWGQGTQVTVSS | low polyreactivity
7 | QVQLVESGGGLVQAGGSLRLSCPASGFTLHSYAMGWYRQAPGKERELVAAITRSGGGTYYADSVKGRFTISRDNAKNTVYLQMNSLKPEDTAVYYCAARFGGQYQHDYWGQGTQVTVSS | high polyreactivity
8 | QVQLVESGGGLVQAGGSLRLSCAASGSTLNLYAMGWYRQAPGKEREVVAGITGGGSSTYYADSVKGRFTISRDNAKNTVYLQMNSLKPEDTAVYYCNVEPGYYYYRHWVAYSHGYGYWGQGTQVTVSS | low polyreactivity
9 | QVQLVESGGGLVQAGGSLRLSCAASGRIFYIYAMGWYRQAPGKERELVATITGSGGGTYYADSVKGRFTISRDNAKNTVYLQMNSLKPEDTAVYYCAAQVLTDPDNYWGQGTQVTVSS | low polyreactivity
10 | QVQLVESGGGLVQAGGSLRLSCAASGRIFSGYAMGWYRKAPGKERELVAAINRGGDTNYADSVKGRFTISRDNAKNTVYLQMNSLKPEDTAVYYCAAQYSGRYRRVPKSYPDRGDYWGQGTQVTVSS | low polyreactivity
11 | QVQLVESGGGLVQAGGSLRLSCAASGSTLYHNAMGWYRQAPGKERELVAIINYSGDNTYYADSVKGRFTISRDNAKNTVFLQMNSLKPEDTAVYYCAADLYERGRQAWQYDYWGQGTQVTVSS | low polyreactivity
12 | QVQLVESGGGLVQAGGSLRLSCAASGRTFGRYAMGWYRQAPGKERELVAAISYSTDSTYYADSVKGRFTISRDNAKNTVYLQMNSLKPEDTAVYYCASDSVIVGSYVGDKHDYWGQGTQVTVSW | low polyreactivity
13 | QVQLVESGGGLVLAGGSLRLSCAASGTIFGYYAMGWYRQAPGKDRELVAAITSDGDTYYADSVKGRFTISRDNAKNTVYLQMNSLKPEDTAVYYCNATYGGPYYIQYDYWGQGTQVTVSS | low polyreactivity
14 | QVQLVESGGGLVQAGGSLRLSCAASGRIFRYYAMGWYRQAPGKERELVAAISRGGSTNYADSVKGRFTISRDNAKNTVYLQMNSLKPEDTAVYYCAAVYHSRVWYGYDSKFEYWGQGTQVTVSS | high polyreactivity
15 | QVQLVESGGGLVQAGGSLRLSCAASGRTFSSYAMGWYRPAPGKERELVAAITKRAGNTYYADSVKGRFTISRDNAKNTVYLQMNSLKPEDTAVYYCAAGWERFRNYNYWGQGTQVTVSS | high polyreactivity
16 | QVQLVESGGGLVQAGGSLRLSCAASGSTFQWNAMGWYRQAPGKERELVAAISKSGGRTYYADSVKGRFTISRDFAKNTVYLQRNSLKPDDTAVYYCNALGSLDGRYGYWGQGTQVTVSS | high polyreactivity
17 | QVQLVESGGGLVQAGGSLRLSCAASGIIFYYYVMGWYRQAPGKERELVAAISRSGGRTRYADSVKGRFTISRDNAKNTVYLQMNSLKPEDTAVYYCAAVGSVNYDADFDYWGQGTQVTVSS | high polyreactivity
